Molecular target: p185 (erbB2), 185 kDa receptor-type tyrosine kinase of the EGFR family, in MDA-MB453 breast adenocarcinoma … (UniProt P04626 23-1255, limits assumed)
Test: cell-based or functional assay

phosphorylation of the 185 kDa protein in MDA-MB453 cells (antiphosphotyrosine Western blot): ~10 fold
B1: Don-1 EGF domain-containing fusion polypeptide (EGF domain and flanking amino acids 85-154 of murine Don-1, C-terminal Flag epitope tag), secreted by … (ligand, not shown: small tags and cut ends)
chain: LHVNSVSTTLSSWSGHARKCNETAKSYCVNGGVCYYIEGINQLSCKCPNGFFGQRCLEKLPLRLYMPDPK

Reference: US20020127594A1 (Takeda / Millennium, published 2002)
